System: Escherichia coli TOP10
Experiment: shrunken log2 fold change of peptide-encoding DNA abundance (4.5 h post-induction vs induction); higher = less antimicrobial activity (less host growth inhibition)
Conditions: time post-induction: 4.5 h; library: site-saturation at positions 5, 18, 19, 20
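Further: peptides expressed intracellularly from a pBAD plasmid library in pooled LB shake-flask culture, induced with 0.3% L-arabinose, DNA abundance read by NGS, three biological replicates, DESeq2 with apeglm shrinkage.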

Row | Sequence | shrunken log2 fold change
1 | RRIRARPPRLPRPRPRPDYGPRP | -0.679
2 | RRIRQRPPRLPRPRPRPFGYPRP | -0.148
3 | RRIRNRPPRLPRPRPRPWDWPRP | 0.0265
4 | RRIRGRPPRLPRPRPRPNDEPRP | 0.482
5 | RRIRFRPPRLPRPRPRPYLNPRP | -0.454
6 | RRIRMRPPRLPRPRPRPKHRPRP | 0.229
7 | RRIRARPPRLPRPRPRPVNMPRP | -0.527
8 | RRIRLRPPRLPRPRPRPWDGPRP | -0.153
9 | RRIRPRPPRLPRPRPRPRNTPRP | 1.19
10 | RRIRVRPPRLPRPRPRPFQTPRP | -0.214
11 | RRIRHRPPRLPRPRPRPECRPRP | 0.0764
12 | RRIRSRPPRLPRPRPRPIQEPRP | 0.000527
13 | RRIRIRPPRLPRPRPRPDTRPRP | -0.293
14 | RRIRGRPPRLPRPRPRPDAYPRP | 0.829
15 | RRIRTRPPRLPRPRPRPKMAPRP | 0.129
16 | RRIRFRPPRLPRPRPRPCCFPRP | -0.354
17 | RRIRGRPPRLPRPRPRPTWHPRP | 0.468
18 | RRIRPRPPRLPRPRPRPSMRPRP | 0.501
19 | RRIRNRPPRLPRPRPRPHRYPRP | -0.345
20 | RRIRIRPPRLPRPRPRPWHYPRP | -0.111
21 | RRIRSRPPRLPRPRPRPESVPRP | 0.17
22 | RRIRQRPPRLPRPRPRPVPEPRP | 0.203
23 | RRIRQRPPRLPRPRPRPVEIPRP | -0.0298
24 | RRIRFRPPRLPRPRPRPQFNPRP | -0.628
25 | RRIRYRPPRLPRPRPRPYTLPRP | -0.213

Row | Sequence | shrunken log2 fold change
26 | RRIRWRPPRLPRPRPRPDVMPRP | 0.126
27 | RRIRKRPPRLPRPRPRPPGGPRP | 0.811
28 | RRIRARPPRLPRPRPRPAYLPRP | 0.365
29 | RRIRDRPPRLPRPRPRPEYMPRP | -0.00941
30 | RRIRARPPRLPRPRPRPQAVPRP | 0.0772
31 | RRIRQRPPRLPRPRPRPDHLPRP | 0.0112
32 | RRIRERPPRLPRPRPRPHACPRP | 0.013
33 | RRIRTRPPRLPRPRPRPWIMPRP | -0.621
34 | RRIRCRPPRLPRPRPRPFPGPRP | -0.0106
35 | RRIRFRPPRLPRPRPRPHIAPRP | -0.532
36 | RRIRERPPRLPRPRPRPGGEPRP | 0.127
37 | RRIRTRPPRLPRPRPRPKCMPRP | -0.134
38 | RRIRIRPPRLPRPRPRPGRWPRP | 0.473
39 | RRIRMRPPRLPRPRPRPWYSPRP | -0.427
40 | RRIRNRPPRLPRPRPRPEYKPRP | -0.203
41 | RRIRKRPPRLPRPRPRPVHWPRP | 0.621
42 | RRIRIRPPRLPRPRPRPFMFPRP | -0.745
43 | RRIRKRPPRLPRPRPRPWMDPRP | 0.0169
44 | RRIRVRPPRLPRPRPRPPDDPRP | 0.107
45 | RRIRCRPPRLPRPRPRPNVIPRP | -0.374
46 | RRIRWRPPRLPRPRPRPLLIPRP | 0.0213
47 | RRIRGRPPRLPRPRPRPRLQPRP | 0.759
48 | RRIRVRPPRLPRPRPRPDKSPRP | -0.0971
49 | RRIRQRPPRLPRPRPRPLMGPRP | -0.121
50 | RRIRQRPPRLPRPRPRPFGQPRP | -0.0598

Row | Sequence | shrunken log2 fold change
51 | RRIRARPPRLPRPRPRPRAVPRP | 1.11
52 | RRIRLRPPRLPRPRPRPMCIPRP | -0.125
53 | RRIRKRPPRLPRPRPRPNKTPRP | -0.227
54 | RRIRGRPPRLPRPRPRPNDQPRP | 0.265
55 | RRIRARPPRLPRPRPRPTNVPRP | 0.0619
56 | RRIRDRPPRLPRPRPRPKRTPRP | 0.143
57 | RRIRWRPPRLPRPRPRPVNIPRP | 0.0116
58 | RRIRQRPPRLPRPRPRPCKPPRP | -0.207
59 | RRIRRRPPRLPRPRPRPFKQPRP | -0.182
60 | RRIRMRPPRLPRPRPRPNVCPRP | -0.00865
61 | RRIRMRPPRLPRPRPRPLIHPRP | -0.207
62 | RRIRCRPPRLPRPRPRPQWSPRP | -0.169
63 | RRIRFRPPRLPRPRPRPWKCPRP | 0.0039
64 | RRIRTRPPRLPRPRPRPTMVPRP | -0.0941
65 | RRIRHRPPRLPRPRPRPMYAPRP | -0.0133
66 | RRIRPRPPRLPRPRPRPTITPRP | -0.347
67 | RRIRPRPPRLPRPRPRPWGIPRP | -0.0138
68 | RRIRDRPPRLPRPRPRPPVLPRP | 0.267
69 | RRIRKRPPRLPRPRPRPERPPRP | 0.407
70 | RRIRQRPPRLPRPRPRPGYHPRP | -0.108
71 | RRIRCRPPRLPRPRPRPFPSPRP | 0.118
72 | RRIRYRPPRLPRPRPRPRTCPRP | -0.134
73 | RRIRPRPPRLPRPRPRPKIHPRP | -0.427
74 | RRIRYRPPRLPRPRPRPDFWPRP | 0.125
75 | RRIRCRPPRLPRPRPRPLWRPRP | 0.397

Row | Sequence | shrunken log2 fold change
76 | RRIRDRPPRLPRPRPRPYKKPRP | 0.00426
77 | RRIRRRPPRLPRPRPRPCKKPRP | 0.0185
78 | RRIRMRPPRLPRPRPRPFPYPRP | -0.23
79 | RRIRRRPPRLPRPRPRPYLNPRP | -1.13
80 | RRIRIRPPRLPRPRPRPKMLPRP | 0.154
81 | RRIRYRPPRLPRPRPRPEYPPRP | -0.01
82 | RRIRPRPPRLPRPRPRPFCHPRP | -0.00162
83 | RRIRKRPPRLPRPRPRPDGFPRP | 0.0522
84 | RRIRPRPPRLPRPRPRPIIDPRP | -0.297
85 | RRIRWRPPRLPRPRPRPCFAPRP | 0.263
86 | RRIRGRPPRLPRPRPRPSEMPRP | 0.4
87 | RRIRPRPPRLPRPRPRPGNDPRP | -0.0392
88 | RRIRLRPPRLPRPRPRPWAFPRP | 0.00977
89 | RRIRLRPPRLPRPRPRPPCSPRP | -0.0182
90 | RRIRYRPPRLPRPRPRPLNQPRP | -0.343
91 | RRIRCRPPRLPRPRPRPMISPRP | -0.235
92 | RRIRSRPPRLPRPRPRPGPQPRP | 0.885
93 | RRIRLRPPRLPRPRPRPTMLPRP | -0.335
94 | RRIRVRPPRLPRPRPRPIHVPRP | -0.155
95 | RRIRRRPPRLPRPRPRPTWCPRP | 0.0593
96 | RRIRPRPPRLPRPRPRPSPMPRP | -0.259
97 | RRIRTRPPRLPRPRPRPPNEPRP | 0.207
98 | RRIRCRPPRLPRPRPRPSFAPRP | -0.0835
99 | RRIRVRPPRLPRPRPRPSHIPRP | -0.706
100 | RRIRMRPPRLPRPRPRPRYHPRP | -0.186

Row | Sequence | shrunken log2 fold change
101 | RRIRYRPPRLPRPRPRPKTQPRP | 0.0853
102 | RRIRSRPPRLPRPRPRPQHRPRP | -0.222
103 | RRIRYRPPRLPRPRPRPVPQPRP | -0.0271
104 | RRIRRRPPRLPRPRPRPGEQPRP | 0.301
105 | RRIRMRPPRLPRPRPRPYMSPRP | -0.00176
106 | RRIRARPPRLPRPRPRPHDRPRP | 0.128
107 | RRIRPRPPRLPRPRPRPSEMPRP | -0.216
108 | RRIRWRPPRLPRPRPRPEKIPRP | 2.76
109 | RRIRRRPPRLPRPRPRPLGPPRP | 0.304
110 | RRIRCRPPRLPRPRPRPWAIPRP | -0.0169
111 | RRIRYRPPRLPRPRPRPMQSPRP | 2.85
112 | RRIRYRPPRLPRPRPRPHQMPRP | -0.0207
113 | RRIRHRPPRLPRPRPRPAQMPRP | 0.127
114 | RRIRTRPPRLPRPRPRPWGPPRP | -0.0265
115 | RRIRCRPPRLPRPRPRPQRFPRP | -0.0259
116 | RRIRVRPPRLPRPRPRPYETPRP | 0.0231
117 | RRIRYRPPRLPRPRPRPIMNPRP | -0.123
118 | RRIRQRPPRLPRPRPRPTPLPRP | 0.487
119 | RRIRGRPPRLPRPRPRPKFPPRP | 0.251
120 | RRIRKRPPRLPRPRPRPSRRPRP | 0.337
121 | RRIRQRPPRLPRPRPRPAEWPRP | -0.357
122 | RRIRKRPPRLPRPRPRPNKMPRP | -0.231
123 | RRIRWRPPRLPRPRPRPPAQPRP | 0.54
124 | RRIRSRPPRLPRPRPRPMACPRP | -0.342
125 | RRIRGRPPRLPRPRPRPYREPRP | 0.00752

Row | Sequence | shrunken log2 fold change
126 | RRIRRRPPRLPRPRPRPYFKPRP | -0.572
127 | RRIRVRPPRLPRPRPRPIQCPRP | 0.078
128 | RRIRQRPPRLPRPRPRPVFDPRP | -0.446
129 | RRIRYRPPRLPRPRPRPHCWPRP | -0.702
130 | RRIRRRPPRLPRPRPRPQMQPRP | -0.205
131 | RRIRDRPPRLPRPRPRPYIFPRP | 3.58
132 | RRIRCRPPRLPRPRPRPGMMPRP | -0.389
133 | RRIRLRPPRLPRPRPRPREYPRP | 0.289
134 | RRIRNRPPRLPRPRPRPLTHPRP | -0.566
135 | RRIRQRPPRLPRPRPRPTEPPRP | 0.00378
136 | RRIRQRPPRLPRPRPRPMQNPRP | -0.324
137 | RRIRDRPPRLPRPRPRPRRSPRP | 0.174
138 | RRIRNRPPRLPRPRPRPKVRPRP | -0.0024
139 | RRIRGRPPRLPRPRPRPYCYPRP | 0.0406
140 | RRIRNRPPRLPRPRPRPVQLPRP | 0.176
141 | RRIRNRPPRLPRPRPRPLFLPRP | -0.547
142 | RRIRRRPPRLPRPRPRPCFGPRP | 0.0921
143 | RRIRRRPPRLPRPRPRPVIWPRP | 0.185
144 | RRIRHRPPRLPRPRPRPGLDPRP | 0.269
145 | RRIRSRPPRLPRPRPRPWCEPRP | -0.291
146 | RRIRFRPPRLPRPRPRPEETPRP | 0.00709
147 | RRIRPRPPRLPRPRPRPVPVPRP | 0.136
148 | RRIRLRPPRLPRPRPRPHGEPRP | 0.191
149 | RRIRNRPPRLPRPRPRPPYCPRP | 0.0775
150 | RRIRIRPPRLPRPRPRPAHKPRP | 0.0491
